This is an account of results in the supplement of paper PMC12042874.

± gives the uncertainty stated by the source.

This data set can be described thus: amyloid nucleation score (Sup35N fusion, yeast selection) (log enrichment); library NNK2; higher = more nucleation; inactive = no reads after selection. The procedure, abridged:
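After 24 hours of induction with 100 μM copper sulfate, psi-negative yeast expressing peptides of 20 random codons fused to Sup35N were grown for 7 days at 30°C on medium lacking adenine and uracil. Input and output plasmid inserts were sequenced with Illumina, and sequences with under 100 input reads were discarded. Scores for nucleation are the DiMSum log enrichment of output over input reads, centred on the mode score of non-aggregating sequences.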
Consider VKWACNMLSI, for which the amyloid nucleation score is -0.676 ± 0.48.
Turning to VKWLYTLDSNFVLVFVPCLT, the amyloid nucleation score is -0.078 ± 0.39.
For the substance VLAFRFYFAVVLGLMIVYG, the amyloid nucleation score is -0.16 ± 0.62.
VLCFCRDFLFVLIQNPFTFP: the amyloid nucleation score entry was “inactive”.
The value for VLCGNSFMNCCSAFRCGSAV was 8.923 ± 0.059.
The substance VLEITLCG registered an amyloid nucleation score of 0.834 ± 0.46.
The substance VLFAWSASDVIVV gave an amyloid nucleation score of 0.639 ± 0.33.
Consider VLFKIIRLRLENIPSSWWVI, for which the amyloid nucleation score is 0.152 ± 0.32.
In turn, VLFNKSLLRWSNWLV registered an amyloid nucleation score of 0.166 ± 0.26.
Consider VLGNGYPD, for which the amyloid nucleation score was -0.19 ± 1.1.
VLLKLVDLWL: the amyloid nucleation score was -0.017 ± 0.54.
Substance VLMASSLITVSICVPRTWAY came in with an amyloid nucleation score of 6.172 ± 0.041.
The value for VLNCNRYFRCSANNIEASES was 0.27 ± 0.56; that for VLNSPVFFHSYRSMVSLM was -0.117 ± 0.3; that for VLRANGCWLFMLHNLIYLWL was 0.172 ± 0.65.
The value for VLSENITSLISKCYCFKSHL was 6.021 ± 0.038; that for VLSMDLQVIRSWKICSVSRK was 0.799 ± 0.17; that for VLSRVDQSTGVIGQTGMVAC was 0.6 ± 0.17.
The value for VLSVGAGKYGLSLISSTTTI was 1.28 ± 0.66; that for VLSVSWYAYCVSMMFIKNWA was 0.697 ± 0.19; that for VLTDSCKFYCELCQLNREVY was 0.443 ± 0.36.
Substance VLTSNTANIGTLHLINIRFH registered an amyloid nucleation score of 8.173 ± 0.026.
As to VLTVN, the amyloid nucleation score result is “inactive”.
As to VLVFEVPFMFNGAFTMGCIR, the amyloid nucleation score amounted to 7.075 ± 0.067.
Consider VLVNKGLTMHFACSYV, for which the amyloid nucleation score came out at 0.547 ± 0.81.
In turn, VLYWCPRDSKTWLSGRLLPM had an amyloid nucleation score of 1.33 ± 0.47.
Regarding VMDCLMLSNMHLYIVLESKS, the amyloid nucleation score worked out at 5.08 ± 0.061.
As to VMILGVYKNFMLIFELVPVY, the amyloid nucleation score is -1.01 ± 0.76.
With VMMNSCNCRSYTLYLL, the amyloid nucleation score was 9.183 ± 0.075.
Turning to VMNMRLLRANLPWTLAWRVQ, the amyloid nucleation score amounted to 0.122 ± 0.35.
Take VMPGSLCLVRVFFCIMHVLY: the amyloid nucleation score result was “inactive”.
For VMRLFIGAGIGRAEL, the amyloid nucleation score is 5.63 ± 0.059.
For the substance VMWASERWYANETNSHLFSL, the amyloid nucleation score is -0.105 ± 0.26.
The substance VMYLLNFNIMGGLSRIIGGI gave an amyloid nucleation score of 6.47 ± 0.049.
Next, VMYMASSLHYTEEPSTSIMT: -0.243 ± 0.27; VNASD: 2.3 ± 0.25; VNDLWRDSHNYFCTNGGNIR: “inactive”.
As to VNFLGWSLVGKCRFQFWTVR, the amyloid nucleation score entry is “inactive”.
The substance VNGPEDPPVHKLMKSTRRSC returned an amyloid nucleation score of 2.79 ± 0.088.
Next, VNGTTGRSCNKNLDVFNSSI: -0.35 ± 1.1.
Turning to VNGYIPRNAAVGQYATRALK, the amyloid nucleation score is -0.032 ± 1.1.
Consider VNKQNPGVYFLHRGFFVLSR, for which the amyloid nucleation score was -1.57 ± 0.78.
Consider VNLLLMVWRGLLLARTGRSG, for which the amyloid nucleation score turned out to be 1.96 ± 0.11.
Regarding VNNYWNDSCARSLNMGRTGR, the amyloid nucleation score worked out at 0.791 ± 0.27.
Turning to VNRAR, the amyloid nucleation score is -0.545 ± 0.63.
As to VNSDYMGIGL, the amyloid nucleation score was -0.272 ± 1.1.
Take VNSLFDWNRAKFLIR: the amyloid nucleation score is -1.39 ± 0.79.
VNTPDISGRHVSYFDFFVFY displayed an amyloid nucleation score of 6.337 ± 0.038.
The value for VNWIKGKGRLPPFHGIDCWW was -0.139 ± 0.63; that for VPELVSYFHLP was 0.863 ± 0.43; that for VPGLESMR was 0.57 ± 0.81.
On to VPSFRYCTSYQTATSLR, for which the amyloid nucleation score is 0.17 ± 0.33.
Next, VQILSHFSADCKDDSVDQES: -1.06 ± 1.1; VQRQIDNSKLWYNYTICIPA: 0.679 ± 0.62.
Regarding VRALRQPAT, the amyloid nucleation score turned out to be 0.567 ± 0.27.
Substance VRCNFISVWSCDVESIVVES gave an amyloid nucleation score of 5.096 ± 0.046.
VRDIVYRYSGGRRS: the amyloid nucleation score result was “inactive”.
Next, VRFTAWICVYRYKEGWWRSL: -0.417 ± 0.24; VRGYRVGVWLRTGRVLVYRG: -0.282 ± 0.76.
Next, VRIKCYVKPYFFQKFLHMIG: -1.34 ± 0.53; VRKGCLTRACWRGCECMQGG: 2.03 ± 0.12.
For the substance VRLVMI, the amyloid nucleation score was 0.019 ± 1.1.
The value for VRMSQKDGKTPFQMFGHLEM was 0.039 ± 0.21; that for VRSKVFALVGAFSMIKFRGC was “inactive”; that for VRSRKCLSVRLFSSVMGVSD was -0.88 ± 0.54.
Substance VRSSPTRVRERRSIILVLNC gave an amyloid nucleation score of 0.594 ± 0.81.
For VRTLGGL, the amyloid nucleation score was -0.653 ± 0.33.
For the substance VRTWCAFYTVIRGWYRLLGS, the amyloid nucleation score was 0.231 ± 0.5.
VRVGCTWS yielded an amyloid nucleation score of 0.618 ± 0.34.
The value for VSACQSESVSNVFDR was -0.152 ± 0.56.
Consider VSCCYRFSASNQIIVTPFSS, for which the amyloid nucleation score was 8.119 ± 0.026.
With VSCNSYMGVLMDDGRVETLE, the amyloid nucleation score came out at 0.486 ± 0.2.
For the substance VSEQSMQCGVKFRHGTPSMV, the amyloid nucleation score was determined as 0.607 ± 0.38.
The value for VSFKDTTGECGDLSYRKNAR was 0.646 ± 0.38; that for VSGCRGVMLI was -0.816 ± 0.54.
The substance VSLYLYPVGMGMSE returned an amyloid nucleation score of 1 ± 0.68.
The value for VSNFSRYHLSCYSMVRLLLD was -0.532 ± 0.36; that for VSNKDVLSQDMAKLIWW was 0.81 ± 0.22; that for VSNTEMQTVHVPAGLLPSGF was -0.27 ± 1.1.
The value for VSPLNGSVYGGDEVFGINLG was -1.95 ± 0.75; that for VSQGRFKYERVVCVNFGKEL was 0.201 ± 0.74.
Regarding VSSFVKLIWQVALINWVRMG, the amyloid nucleation score entry is “inactive”.
The value for VSTRILSCSNEFCYIIGAMV was 2.59 ± 0.15; that for VSVDSVDAIFRK was 0.489 ± 0.64; that for VSYGVWSCIRGL was -0.324 ± 1.1.
The value for VTALYGSSICMSRSDY was 0.119 ± 0.47; that for VTEHRNHIKTWTTQSSLCDW was 0.124 ± 0.37.
Regarding VTFNALLGFLASICVITSRI, the amyloid nucleation score was determined as 3.16 ± 0.072.
VTNHV came in with an amyloid nucleation score of 0.895 ± 0.33.
In turn, VTRDARRDSQGDKVV registered an amyloid nucleation score of 1.02 ± 0.17.
Substance VTRKVLGYCRVW gave an amyloid nucleation score of 0.472 ± 0.8.
VTRRLYSRFIGTKEISAVIC: the amyloid nucleation score was found to be 0.119 ± 0.43.
Next, VTVNFSANARLCRLGLLNVC: -0.222 ± 0.34; VVERKLVMHYGMEMYTVHDG: 0.971 ± 0.51; VVEVCC: -0.368 ± 0.27.
As to VVGSWYKSGRKRLQRDDALS, the amyloid nucleation score was -1.03 ± 0.55.
VVLLAKYQVCIICIKEDLSN showed an amyloid nucleation score of 3.78 ± 0.12.
For VVLYCFISLLKFIEIGEGHP, the amyloid nucleation score is -1.24 ± 1.1.
Regarding VVNSVVPKRSRLCHFYFTGM, the amyloid nucleation score is -1.02 ± 0.63.
Next, VVRCRWQDTRTVSQGWVIP: 0.97 ± 0.33; VVRSHTLQNSALRCWSDG: 0.935 ± 0.39.
For VVSHLGWTWGFKSMLGIRRS, the amyloid nucleation score is -0.759 ± 0.29.
Regarding VVSKLFRDFYWRMLKSNMGW, the amyloid nucleation score came to 0.448 ± 0.62.
VVSWCVEVNPRERAKVDMCR displayed an amyloid nucleation score of 4.25 ± 0.047.
On to VVSWKCIEYYVVE, for which the amyloid nucleation score was -0.871 ± 0.78.
With VVTGSMDSCGQPKVSSSSAS, the amyloid nucleation score worked out at 0.294 ± 0.38.
VVVRNGLLNISFKVNRCGFG yielded an amyloid nucleation score of 8.662 ± 0.055.
In turn, VVWGERVHGIWLMCYCNWTG had an amyloid nucleation score of 5.51 ± 0.091.
As to VWCCHLNINVASSLTVSCTR, the amyloid nucleation score was 0.544 ± 0.21.
VWDAEFSGPLRHEIMSGFVW returned an amyloid nucleation score of 0.08 ± 0.3.
Regarding VWLNSHFLMGRI, the amyloid nucleation score is -1.46 ± 0.54.
For VWLRYYMCFNFVWSIVGVRI, the amyloid nucleation score is 3.81 ± 0.052.
Next, VWPGLIGHRSFFINLHVGKG: 7.38 ± 0.082.
The substance VWRIRTAMGTG displayed an amyloid nucleation score of 0.766 ± 0.19.
The value for VWRSLMCFSWNPTMHRLISV was 0.363 ± 0.53; that for VWSRRYTLVGFTSVVPSNDN was 0.3 ± 0.37; that for VWWSLSYFQAVRGQLFHQIV was -0.139 ± 0.42.
VWYINSTNYLCPLISRVQVE: the amyloid nucleation score was -0.997 ± 0.36.
In turn, VYGSCSVMLGNWCSSVFKVL returned an amyloid nucleation score of 0.174 ± 1.
Next, VYISSSFDFWMFVNFIDDTL: -0.511 ± 0.43.
Turning to VYKQVRNKVCSYLSLTERRW, the amyloid nucleation score worked out at 0.654 ± 0.57.
Regarding VYLFDTYGCSEQFHSVVGYK, the amyloid nucleation score is -0.916 ± 0.76.
As for VYNSGWQVGWAKGLWSSLYN, the amyloid nucleation score was -0.409 ± 0.34.
As for VYQIRKV, the amyloid nucleation score is -0.523 ± 0.33.
Substance VYRDDCFHFLDTSQTGACLT yielded an amyloid nucleation score of 0.797 ± 0.4.
Consider VYRYFNLQVISFWMMARHTM, for which the amyloid nucleation score was -1.32 ± 1.1.
As for VYSHILDYFACISYAITLVD, the amyloid nucleation score came to 2.91 ± 0.13.
On to VYSPAIFTNVFSYVSCEEER, for which the amyloid nucleation score came out at 6.56 ± 0.072.
For VYTTDLPFIYVLSVFMFIHG, the amyloid nucleation score was -0.447 ± 0.27.
VYYTCYDE displayed an amyloid nucleation score of 0.024 ± 0.4.
Turning to WALSHYVCNTYYSNHSVSNT, the amyloid nucleation score amounted to 5.57 ± 0.052.
WALTHVSLYRFGER registered an amyloid nucleation score of 4.32 ± 0.093.
Take WARFEKV: the amyloid nucleation score result was “inactive”.
Turning to WCGFHGKATNHFMWIV, the amyloid nucleation score turned out to be 1.45 ± 0.27.
Regarding WCGREVNLHALLCKIDRLTI, the amyloid nucleation score was 0.598 ± 0.49.
For the substance WCHVSLMYRGYLKSGARDGN, the amyloid nucleation score is 0.199 ± 0.43.
In turn, WCLGSMVTHYYLATNSSGYC displayed an amyloid nucleation score of 3.64 ± 0.11.
On to WCNTRRCNSPPLVVC, for which the amyloid nucleation score is 1.86 ± 0.12.
